Experimental data as given in US20020165132A1.

How the values were obtained:
[1] = target: δ receptor (δ-Binding assay, replacement of 3H-naltrindole); assay: δ-Binding, replacement of 3H-naltrindole (radioligand displacement)
[2] = target: µ-receptor (guinea pig ileum preparation) (guinea pig); assay: cell-based or functional assay
[3] = target: δ-receptor (mouse vas deferens preparation) (mouse) (UniProt P32300); assay: cell-based or functional assay
Sequence of δ-receptor (mouse vas deferens preparation) (mouse) (P32300 whole entry, stated change not applied): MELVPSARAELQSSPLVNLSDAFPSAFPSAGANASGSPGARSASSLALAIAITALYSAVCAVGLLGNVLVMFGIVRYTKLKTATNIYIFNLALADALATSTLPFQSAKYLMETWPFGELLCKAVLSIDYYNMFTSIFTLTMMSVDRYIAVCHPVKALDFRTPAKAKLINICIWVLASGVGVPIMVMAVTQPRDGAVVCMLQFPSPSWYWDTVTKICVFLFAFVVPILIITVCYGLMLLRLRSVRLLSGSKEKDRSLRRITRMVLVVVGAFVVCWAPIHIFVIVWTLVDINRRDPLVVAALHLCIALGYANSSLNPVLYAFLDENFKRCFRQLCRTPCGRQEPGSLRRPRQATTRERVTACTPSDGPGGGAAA

Substance | IC50 [1] | GPI IC50 [2] | MVD IC50 [3]
Tyr-c[D-AlaL-Gly-Phe-L-AlaL]-NH2 (peptide) | 7 nM |  | 
Tyr-c[D-AlaL-Gly-Phe-L-AlaL]-OH (peptide) | 1 nM |  | 
Tyr-c[D-Cys-Gly-Phe-D-Cys]-NH2 (peptide) |  | 0.78 nM | 
Tyr-c[D-Cys-Gly-Phe-L-Cys]-NH2 (peptide) |  | 1.51 nM | 
Tyr-c[D-Cys-Gly-Phe-L-Cys]-OH (peptide) |  | 3.06 nM | 
Tyr-c[D-Pen-Gly-Phe-D-Pen]-OH (peptide) |  | 7300 nM | 4.1 nM
